B1: anti-rabies virus human monoclonal antibody 17C7 (antibody, V domains shown)
VH: QVQLVESGGGVVQPGRSLRLSCAASGFTFSTYAMHWVRQAPGKGLEWVAVVSYDGRTKDYADSVKGRFTISRDNSKNTLYLQMNSLRTEDTAVYFCARERFSGAYFDYWGQGTLVTVSS
VL: EIVLTQSPATLSLSPGERATLSCRASQSVSSYLAWYQQKPGQAPRLLIYDASNRATGIPARFSGSGSGTDFTLTISSLEPEDFAVYSCQQRNNWPPTFGGGTKVEIK
B2: anti-rabies virus human monoclonal antibody 2B10 (antibody, V domains shown)
VH: EVQLVQSGGGLVHPGGSLRLSCAGSGFTFSYFAMHWVRQAPGKGLEWVSTIGTGGGTYYADSVKGRFTISRDNAKNSLYLQMNSLRAEDMAVYYCARDNALRSFDWLFYSFDYWGQGTLVTVSS
VL: EIVLTQSPGTLSLSPGERATLSCRASQSISSSYLAWYQQKPGQAPRLLIYGASSRATGIPDRFSGSGSGTDFTLTISRLEPEDFAVYYCQRYGSSYTFGQGTKLEIK

Tests used:
[1] = target: T1, G glycoprotein of rabies virus street isolate DR Brazil (rabies virus, isolate DR Brazil …); assay: cell-based or functional assay
[2] = target: T1, G glycoprotein of rabies virus street …; assay: cell-based or functional assay; remark: listed apart in the source

| Binder | EC50 neutralization by RFFIT (Test A) [1] | EC50 neutralization by RFFIT [2] |
| --- | --- | --- |
| B1 | 0.222 µg/mL | 0.222 µg/mL |
| B2 | 0.004 µg/mL | 0.004 µg/mL |

From patent US20190002534A1 (UNIVERSITY OF MASSACHUSETTS, published 2019)
